The Immune Epitope Database (IEDB)

What was measured:
Test in all cases: IEDB peptide-MHC binding, purified MHC/competitive/radioactivity; filed as Kd, often an IC50 or EC50 that approximates it; ≥ and ≤ were set here for values at or beyond the usual limits of such assays
HLA-A*02:02 = biological target: HLA-A*02:02
HLA-A*02:06 = biological target: HLA-A*02:06
HLA-A*02:03 = biological target: HLA-A*02:03
HLA-A*33:01 = biological target: HLA-A*33:01
HLA-A*03:01 = biological target: HLA-A*03:01
HLA-A*11:01 = biological target: HLA-A*11:01
HLA-A*31:01 = biological target: HLA-A*31:01
HLA-A*68:01 = biological target: HLA-A*68:01
[1] = source organism: Vaccinia virus WR
[2] = source organism: Vaccinia virus Copenhagen
[3] = source organism: SARS coronavirus Tor2
[4] = source organism: Lymphocytic choriomeningitis virus (strain Traub)
[5] = source organism: Dengue virus 2 Jamaica/1409/1983

## AVIIMAINV
HLA-A*02:02; [1]
  Kd: 9070 nM
HLA-A*02:06; [1]
  Kd: 65.2 nM
HLA-A*02:03; [1]
  Kd: 2760 nM

## NVSRVVECL
HLA-A*02:02; [1]
  Kd: 133 nM
HLA-A*02:06; [1]
  Kd: 1030 nM
HLA-A*02:03; [1]
  Kd: 938 nM

## RVTTELNIV
HLA-A*02:02; [1]
  Kd: 2460 nM
HLA-A*02:06; [1]
  Kd: 45.7 nM
HLA-A*02:03; [1]
  Kd: 116 nM

## SLGKSPLPSL
HLA-A*02:02; [1]
  Kd: 4.07 nM
HLA-A*02:06; [1]
  Kd: 1430 nM
HLA-A*02:03; [1]
  Kd: 46.8 nM

## ILSCIFAFI
HLA-A*02:02; [2]
  Kd: 0.79 nM
HLA-A*02:06; [2]
  Kd: 8.84 nM
HLA-A*02:03; [2]
  Kd: 3.08 nM

## LIANIFTPLV
HLA-A*02:02; [3]
  Kd: 0.398 nM
HLA-A*02:06; [3]
  Kd: 15.7 nM
HLA-A*02:03; [3]
  Kd: 13.4 nM

## DAEFVMCLEA
HLA-A*02:02; [1]
  Kd: 2410 nM
HLA-A*02:06; [1]
  Kd: 12700 nM
HLA-A*02:03; [1]
  Kd: 7310 nM

## IIAVFDSKL
HLA-A*02:02; [1]
  Kd: 44 nM
HLA-A*02:06; [1]
  Kd: 98.6 nM
HLA-A*02:03; [1]
  Kd: 107 nM

## VQTLISLNSM
HLA-A*02:02; [1]
  Kd: 1560 nM
HLA-A*02:06; [1]
  Kd: 853 nM
HLA-A*02:03; [1]
  Kd: 5820 nM

## LITNTKSDNI
HLA-A*02:02; [1]
  Kd: 2250 nM
HLA-A*02:06; [1]
  Kd: 18700 nM
HLA-A*02:03; [1]
  Kd: 3080 nM

## DLDKVYEIL
HLA-A*02:02; [1]
  Kd: 19600 nM
HLA-A*02:06; [1]
  Kd: ≥ 53700 nM
HLA-A*02:03; [1]
  Kd: ≥ 26300 nM

## FISPASISSV
HLA-A*02:02; [1]
  Kd: 3.01 nM
HLA-A*02:06; [1]
  Kd: 2.02 nM
HLA-A*02:03; [1]
  Kd: 0.111 nM

## FLLFLVLIML
HLA-A*02:02; [3]
  Kd: 1570 nM
HLA-A*02:06; [3]
  Kd: 2920 nM
HLA-A*02:03; [3]
  Kd: 1380 nM

## ATICLKNEGV
HLA-A*02:02; [1]
  Kd: 436 nM
HLA-A*02:06; [1]
  Kd: 42.5 nM
HLA-A*02:03; [1]
  Kd: 70.9 nM

## LLLENKSLTI
HLA-A*02:02; [1]
  Kd: 982 nM
HLA-A*02:06; [1]
  Kd: 1320 nM
HLA-A*02:03; [1]
  Kd: 985 nM

## YVVVHGYFT
HLA-A*02:02; [3]
  Kd: 342 nM
HLA-A*02:06; [3]
  Kd: 171 nM
HLA-A*02:03; [3]
  Kd: 792 nM

## PLPCQLMYAL
HLA-A*02:02; [1]
  Kd: 163 nM
HLA-A*02:06; [1]
  Kd: 9810 nM
HLA-A*02:03; [1]
  Kd: 8710 nM

## SVGTGILFM
HLA-A*02:02; [1]
  Kd: 1090 nM
HLA-A*02:06; [1]
  Kd: ≥ 20700 nM
HLA-A*02:03; [1]
  Kd: 2250 nM

## GTSVIRSNI
HLA-A*02:02; [1]
  Kd: 386 nM
HLA-A*02:06; [1]
  Kd: 1610 nM
HLA-A*02:03; [1]
  Kd: 44.8 nM

## FAFIDFSKST
HLA-A*02:02; [1]
  Kd: 11800 nM
HLA-A*02:06; [1]
  Kd: 1410 nM
HLA-A*02:03; [1]
  Kd: 2410 nM

## KASTISWMM
HLA-A*02:02; [1]
  Kd: 429 nM
HLA-A*02:06; [1]
  Kd: 797 nM
HLA-A*02:03; [1]
  Kd: 556 nM

## PTEMVDVSM
HLA-A*02:02; [1]
  Kd: 10600 nM
HLA-A*02:06; [1]
  Kd: ≥ 40200 nM
HLA-A*02:03; [1]
  Kd: ≥ 41300 nM

## PTPKKMNIVT
HLA-A*02:02; [1]
  Kd: ≥ 65800 nM
HLA-A*02:06; [1]
  Kd: ≥ 69800 nM
HLA-A*02:03; [1]
  Kd: ≥ 55700 nM

## YTKHSMLTNA
HLA-A*02:02; [1]
  Kd: 3900 nM
HLA-A*02:06; [1]
  Kd: 7340 nM
HLA-A*02:03; [1]
  Kd: 141 nM

## CAMPYNILDR
HLA-A*33:01; [1]
  Kd: 640 nM
HLA-A*03:01; [1]
  Kd: 7240 nM
HLA-A*11:01; [1]
  Kd: 187 nM
HLA-A*31:01; [1]
  Kd: 301 nM
HLA-A*68:01; [1]
  Kd: 8.75 nM

## VTDLENRLK
HLA-A*33:01; [1]
  Kd: 13100 nM
HLA-A*03:01; [1]
  Kd: 2250 nM
HLA-A*11:01; [1]
  Kd: 25.9 nM
HLA-A*31:01; [1]
  Kd: 13600 nM
HLA-A*68:01; [1]
  Kd: 7250 nM

## ISRDELWAR
HLA-A*33:01; [1]
  Kd: 1.69 nM
HLA-A*03:01; [1]
  Kd: ≥ 78000 nM
HLA-A*11:01; [1]
  Kd: ≥ 22200 nM
HLA-A*31:01; [1]
  Kd: 47.8 nM
HLA-A*68:01; [1]
  Kd: 946 nM

## SLELIIIHTK
HLA-A*33:01; [1]
  Kd: ≥ 53400 nM
HLA-A*03:01; [1]
  Kd: 16200 nM
HLA-A*11:01; [1]
  Kd: 1300 nM
HLA-A*31:01; [1]
  Kd: 130 nM
HLA-A*68:01; [1]
  Kd: 8050 nM

## FIDVHIPKFK
HLA-A*33:01; [1]
  Kd: 13100 nM
HLA-A*03:01; [1]
  Kd: 1060 nM
HLA-A*11:01; [1]
  Kd: 179 nM
HLA-A*31:01; [1]
  Kd: 2700 nM
HLA-A*68:01; [1]
  Kd: 108 nM

## ITLDTMDDMK
HLA-A*33:01; [1]
  Kd: ≥ 70000 nM
HLA-A*03:01; [1]
  Kd: 3190 nM
HLA-A*11:01; [1]
  Kd: 42.3 nM
HLA-A*31:01; [1]
  Kd: 16700 nM
HLA-A*68:01; [1]
  Kd: 122 nM

## SLLSLREVK
HLA-A*33:01; [3]
  Kd: 8140 nM
HLA-A*03:01; [3]
  Kd: 249 nM
HLA-A*11:01; [3]
  Kd: 21.2 nM
HLA-A*31:01; [3]
  Kd: 187 nM
HLA-A*68:01; [3]
  Kd: 1190 nM

## ISSRVDRYSK
HLA-A*33:01; [1]
  Kd: ≥ 70000 nM
HLA-A*03:01; [1]
  Kd: ≥ 27300 nM
HLA-A*11:01; [1]
  Kd: 287 nM
HLA-A*31:01; [1]
  Kd: 7200 nM
HLA-A*68:01; [1]
  Kd: 861 nM

## KCHDHYLCR
HLA-A*33:01; [4]
  Kd: 1350 nM
HLA-A*03:01; [4]
  Kd: 7630 nM
HLA-A*11:01; [4]
  Kd: 3270 nM
HLA-A*31:01; [4]
  Kd: 109 nM
HLA-A*68:01; [4]
  Kd: ≥ 48000 nM

## ITYKCPLLR
HLA-A*33:01; [5]
  Kd: 200 nM
HLA-A*03:01; [5]
  Kd: 16.1 nM
HLA-A*11:01; [5]
  Kd: 63.9 nM
HLA-A*31:01; [5]
  Kd: 11.6 nM
HLA-A*68:01; [5]
  Kd: 59.4 nM

## RSLQTIASK
HLA-A*33:01; [1]
  Kd: ≥ 77700 nM
HLA-A*03:01; [1]
  Kd: 1.5 nM
HLA-A*11:01; [1]
  Kd: 7.32 nM
HLA-A*31:01; [1]
  Kd: 4.3 nM
HLA-A*68:01; [1]
  Kd: 187 nM

## HIKTIAVSVY
HLA-A*33:01; [1]
  Kd: 13800 nM
HLA-A*03:01; [1]
  Kd: 257 nM
HLA-A*11:01; [1]
  Kd: 8240 nM
HLA-A*31:01; [1]
  Kd: 914 nM
HLA-A*68:01; [1]
  Kd: 5820 nM

## LSKIPYLRNY
HLA-A*33:01; [1]
  Kd: 9090 nM
HLA-A*03:01; [1]
  Kd: 6940 nM
HLA-A*11:01; [1]
  Kd: 2610 nM
HLA-A*31:01; [1]
  Kd: 320 nM
HLA-A*68:01; [1]
  Kd: 9650 nM
